Measurements reported in publication PMC4038756 (Theranostics, 2014).

Experiments:
[1] = target: αvβ6 integrin-positive H2009 human NSCLC cells (Homo sapiens, UniProt P06756+P18564); experiment: Peptide competition assay: inhibition of H2009.1 peptide phage binding to cells
[2] = system: H2009 (αvβ6^+) xenografts; experiment: Small animal PET/CT imaging, H2009 tumor bearing mice; format: in vivo, NOD/SCID mice; conditions: for increase of kidney uptake as compared to 64Cu-M10 / Tumor uptake / Tumor/Lung: H2009 tumor bearing mice; for increase of kidney uptake as compared to 64Cu-M10: 1 h, 4 h; for Tumor uptake: quantitative PET, mean ± s.d.; for Tumor uptake / Tumor/Lung: n = 3; for Tumor/Lung: ratio of PET uptakes; for tumor uptake increase as compared to 64Cu-M10: H2009 tumor, all three time points (1 h, 4 h, 24 h p.i.)
[3] = as above; format: in vivo, NOD/SCID mice; conditions: NOD/SCID, mouse, iv, total radioactivity
H460 (αvβ6^-) xenografts = experiment: Small animal PET/CT imaging, H460 tumor bearing mice; format: in vivo, NOD/SCID mice; conditions: H460 tumor bearing mice, quantitative PET, mean ± s.d., n = 3
[4] = as above; format: in vivo, NOD/SCID mice; conditions: NOD/SCID, mouse, iv, total radioactivity
purified αvβ6 = purified αvβ6 (Homo sapiens, UniProt P06756+P18564); experiment: Binding assay on purified integrins; conditions: purified αvβ6, up to 1 µM
Chain of purified αvβ6 (P06756 31-992 limits assumed): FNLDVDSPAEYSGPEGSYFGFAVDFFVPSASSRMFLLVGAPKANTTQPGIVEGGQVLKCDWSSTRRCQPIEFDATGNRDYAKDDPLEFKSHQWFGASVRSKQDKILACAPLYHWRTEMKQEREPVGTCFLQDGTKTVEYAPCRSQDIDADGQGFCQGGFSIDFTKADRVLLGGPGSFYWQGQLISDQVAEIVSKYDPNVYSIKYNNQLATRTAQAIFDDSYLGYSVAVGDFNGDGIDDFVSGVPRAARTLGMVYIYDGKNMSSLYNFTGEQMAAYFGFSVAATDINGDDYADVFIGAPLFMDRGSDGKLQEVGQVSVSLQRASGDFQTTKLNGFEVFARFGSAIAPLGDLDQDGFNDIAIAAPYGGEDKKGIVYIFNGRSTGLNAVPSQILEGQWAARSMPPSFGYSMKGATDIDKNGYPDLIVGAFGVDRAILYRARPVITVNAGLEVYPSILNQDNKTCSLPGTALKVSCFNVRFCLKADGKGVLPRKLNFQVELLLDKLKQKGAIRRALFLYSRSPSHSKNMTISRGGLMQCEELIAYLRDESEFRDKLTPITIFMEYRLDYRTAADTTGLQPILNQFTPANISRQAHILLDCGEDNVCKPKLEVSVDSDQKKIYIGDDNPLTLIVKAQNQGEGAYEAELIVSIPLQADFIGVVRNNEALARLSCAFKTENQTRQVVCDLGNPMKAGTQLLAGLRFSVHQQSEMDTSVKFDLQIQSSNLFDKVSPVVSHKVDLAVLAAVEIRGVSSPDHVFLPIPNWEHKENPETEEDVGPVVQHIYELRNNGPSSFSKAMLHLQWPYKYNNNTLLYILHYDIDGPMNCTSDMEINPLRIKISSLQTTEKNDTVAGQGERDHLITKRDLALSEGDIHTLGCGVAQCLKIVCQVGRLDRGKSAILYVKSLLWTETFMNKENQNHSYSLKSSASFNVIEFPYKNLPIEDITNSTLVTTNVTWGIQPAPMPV
Chain of purified αvβ6 (P18564 22-707 limits assumed): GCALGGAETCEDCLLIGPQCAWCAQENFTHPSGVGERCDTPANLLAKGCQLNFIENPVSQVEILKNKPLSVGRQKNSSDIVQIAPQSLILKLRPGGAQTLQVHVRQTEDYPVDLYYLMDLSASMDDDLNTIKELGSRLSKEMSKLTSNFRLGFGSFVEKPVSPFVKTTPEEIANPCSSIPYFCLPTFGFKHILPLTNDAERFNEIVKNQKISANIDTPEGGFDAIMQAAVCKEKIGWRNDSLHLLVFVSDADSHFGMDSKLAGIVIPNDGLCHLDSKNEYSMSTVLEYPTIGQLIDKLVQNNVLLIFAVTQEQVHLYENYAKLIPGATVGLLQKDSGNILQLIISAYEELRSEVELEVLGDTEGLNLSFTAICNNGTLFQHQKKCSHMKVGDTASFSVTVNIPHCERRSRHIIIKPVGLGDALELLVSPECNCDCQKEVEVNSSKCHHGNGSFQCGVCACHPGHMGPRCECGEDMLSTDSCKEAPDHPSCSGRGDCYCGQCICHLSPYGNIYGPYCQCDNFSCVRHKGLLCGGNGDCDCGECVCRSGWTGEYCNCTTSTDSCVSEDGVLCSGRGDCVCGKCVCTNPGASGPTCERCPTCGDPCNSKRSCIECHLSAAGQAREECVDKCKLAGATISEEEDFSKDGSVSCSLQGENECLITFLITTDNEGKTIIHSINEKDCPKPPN

Chain of αvβ6 integrin-positive H2009 human NSCLC cells (P18564 22-788): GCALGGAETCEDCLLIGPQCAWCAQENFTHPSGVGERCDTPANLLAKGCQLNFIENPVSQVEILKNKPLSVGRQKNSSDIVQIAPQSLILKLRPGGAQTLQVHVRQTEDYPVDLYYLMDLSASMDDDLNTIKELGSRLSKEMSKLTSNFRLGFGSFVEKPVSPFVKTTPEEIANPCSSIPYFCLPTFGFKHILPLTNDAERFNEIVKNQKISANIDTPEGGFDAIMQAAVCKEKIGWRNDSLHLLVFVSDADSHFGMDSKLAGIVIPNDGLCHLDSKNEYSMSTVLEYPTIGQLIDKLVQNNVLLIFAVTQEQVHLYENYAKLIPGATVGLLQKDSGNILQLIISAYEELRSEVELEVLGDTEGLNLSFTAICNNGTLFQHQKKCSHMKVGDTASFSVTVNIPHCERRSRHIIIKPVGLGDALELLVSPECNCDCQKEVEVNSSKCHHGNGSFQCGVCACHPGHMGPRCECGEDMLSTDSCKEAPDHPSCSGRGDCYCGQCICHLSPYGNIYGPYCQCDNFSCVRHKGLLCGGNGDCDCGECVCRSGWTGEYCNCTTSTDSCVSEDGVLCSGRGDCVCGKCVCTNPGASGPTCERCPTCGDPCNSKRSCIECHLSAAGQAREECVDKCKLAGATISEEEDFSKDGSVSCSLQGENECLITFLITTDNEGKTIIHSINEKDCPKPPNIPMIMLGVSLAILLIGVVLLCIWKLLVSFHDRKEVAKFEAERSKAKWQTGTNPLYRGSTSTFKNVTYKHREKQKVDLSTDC
Chain of αvβ6 integrin-positive H2009 human NSCLC cells (P06756 891-1048): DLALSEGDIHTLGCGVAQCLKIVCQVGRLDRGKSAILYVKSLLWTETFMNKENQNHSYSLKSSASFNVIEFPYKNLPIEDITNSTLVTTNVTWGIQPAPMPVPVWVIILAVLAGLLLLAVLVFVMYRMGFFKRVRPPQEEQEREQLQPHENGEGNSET
Chain of αvβ6 integrin-positive H2009 human NSCLC cells (P06756 31-889): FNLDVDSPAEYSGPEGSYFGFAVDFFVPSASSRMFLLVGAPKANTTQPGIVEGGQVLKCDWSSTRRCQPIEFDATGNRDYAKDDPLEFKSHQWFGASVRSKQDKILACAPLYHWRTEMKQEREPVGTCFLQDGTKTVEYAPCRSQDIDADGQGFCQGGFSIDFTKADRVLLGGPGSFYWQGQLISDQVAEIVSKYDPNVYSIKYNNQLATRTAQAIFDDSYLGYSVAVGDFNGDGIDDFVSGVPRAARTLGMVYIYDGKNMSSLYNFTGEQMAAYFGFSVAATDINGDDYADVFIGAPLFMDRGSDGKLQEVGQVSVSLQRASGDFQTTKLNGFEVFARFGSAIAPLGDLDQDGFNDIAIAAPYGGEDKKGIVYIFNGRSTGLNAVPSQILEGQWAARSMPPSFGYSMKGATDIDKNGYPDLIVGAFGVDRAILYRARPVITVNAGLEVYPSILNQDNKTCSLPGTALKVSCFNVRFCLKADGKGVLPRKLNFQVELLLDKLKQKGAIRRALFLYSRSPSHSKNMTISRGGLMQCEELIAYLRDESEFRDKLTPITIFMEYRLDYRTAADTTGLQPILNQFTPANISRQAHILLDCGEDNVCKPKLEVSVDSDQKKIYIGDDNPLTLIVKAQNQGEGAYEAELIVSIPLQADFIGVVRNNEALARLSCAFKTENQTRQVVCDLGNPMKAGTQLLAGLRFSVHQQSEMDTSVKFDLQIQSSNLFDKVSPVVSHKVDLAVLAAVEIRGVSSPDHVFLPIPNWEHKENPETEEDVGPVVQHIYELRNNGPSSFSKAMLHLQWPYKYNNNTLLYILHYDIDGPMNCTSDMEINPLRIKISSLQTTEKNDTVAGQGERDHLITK

Which IC50 [1] does the source give for CC(C)C[C@H](NC(=O)[C@H](CCC(N)=O)NC(=O)[C@H](CCCNC(=N)N)NC(=O)[C@H](CC(C)C)NC(=O)[C@@H](NC(=O)[C@H](C)NC(=O)[C@H](CC(C)C)NC(=O)[C@H](CC(=O)O)NC(=O)CNC(=O)[C@@H](N)CCCNC(=N)N)[C@@H](C)O)C(=O)NCCOCCOCCOCCOCCOCCOCCOCCOCCOCCOCCOCCOCCC(=O)N[C@@H](CSC1CC(=O)N(CCNC(=O)CCC(C(=O)O)N2CCCN3CCN(CCCN(CC(=O)O)CC3)CC2)C1=O)C(N)=O (stereo partly drawn) [H2-M10] here?
Its IC50 is 4.5 nM.

What does the source list for CC(C)C[C@H](NC(=O)[C@H](CCC(N)=O)NC(=O)[C@H](CCCNC(=N)N)NC(=O)[C@H](CC(C)C)NC(=O)[C@@H](NC(=O)[C@H](C)NC(=O)[C@H](CC(C)C)NC(=O)[C@H](CC(=O)O)NC(=O)CNC(=O)[C@@H](N)CCCNC(=N)N)[C@@H](C)O)C(=O)NCCOCCOCCOCCOCCOCCOCCOCCOCCOCCOCCOCCOCCC(=O)N[C@@H](CSC1CC(=O)N(CCNC(=O)CCC(C(=O)O)N2CCCN3CCN(CCCN(C(CCC(=O)NCCN4C(=O)CC(SC[C@H](NC(=O)CCOCCOCCOCCOCCOCCOCCOCCOCCOCCOCCOCCOCCNC(=O)[C@H](CC(C)C)NC(=O)[C@H](CCC(N)=O)NC(=O)[C@H](CCCNC(=N)N)NC(=O)[C@H](CC(C)C)NC(=O)[C@@H](NC(=O)[C@H](C)NC(=O)[C@H](CC(C)C)NC(=O)[C@H](CC(=O)O)NC(=O)CNC(=O)[C@@H](N)CCCNC(=N)N)[C@@H](C)O)C(N)=O)C4=O)C(=O)O)CC3)CC2)C1=O)C(N)=O (stereo partly drawn) [^64Cu-(M10)2, metal not drawn]?
increase of kidney uptake as compared to 64Cu-M10 ([2]; 24 h p.i.): ~6 fold; Tumor uptake ([2]; 1 h p.i.): 1.6 ± 0.20 %ID/g; Tumor/Lung ([2]; 1 h p.i.): 1.0 ± 0.25; Tumor uptake ([2]; 4 h p.i.): 0.85 ± 0.19 %ID/g; Tumor/Lung ([2]; 4 h p.i.): 1.2 ± 0.19; Tumor uptake ([2]; 24 h p.i.): 0.79 ± 0.03 %ID/g; Tumor/Lung ([2]; 24 h p.i.): 1.9 ± 0.04; tumor uptake increase as compared to 64Cu-M10 [2]: ~3 fold; tissue uptake at 1 h ([3]; heart): 1.56 ± 0.15 %ID/g; tissue uptake at 4 h ([3]; heart): 0.71 ± 0.03 %ID/g; tissue uptake at 24 h ([3]; heart): 0.32 ± 0.03 %ID/g; tissue uptake at 1 h ([3]; kidney): 53.6 ± 8.68 %ID/g; tissue uptake at 4 h ([3]; kidney): 46.2 ± 10.4 %ID/g; tissue uptake at 24 h ([3]; kidney): 27.3 ± 7.3 %ID/g; tissue uptake at 1 h ([3]; liver): 2.13 ± 0.73 %ID/g; tissue uptake at 4 h ([3]; liver): 1.9 %ID/g; tissue uptake at 24 h ([3]; liver): 1.26 ± 0.25 %ID/g; tissue uptake at 1 h ([3]; lung): 1.66 ± 0.15 %ID/g; tissue uptake at 4 h ([3]; lung): 0.72 ± 0.02 %ID/g; tissue uptake at 24 h ([3]; lung): 0.4 ± 0.03 %ID/g; tissue uptake at 1 h ([3]; muscle): 0.87 ± 0.04 %ID/g; tissue uptake at 4 h ([3]; muscle): 0.3 ± 0.02 %ID/g; tissue uptake at 24 h ([3]; muscle): 0.25 ± 0.05 %ID/g; Tumor uptake (H460 (αvβ6^-) xenografts; 1 h p.i.): 0.71 ± 0.05 %ID/g; Tumor uptake (H460 (αvβ6^-) xenografts; 4 h p.i.): 0.83 ± 0.04 %ID/g; Tumor uptake (H460 (αvβ6^-) xenografts; 24 h p.i.): 0.53 ± 0.17 %ID/g; tissue uptake at 1 h ([4]; heart): 1.7 %ID/g; tissue uptake at 4 h ([4]; heart): 1.25 ± 0.07 %ID/g; tissue uptake at 24 h ([4]; heart): 0.83 ± 0.17 %ID/g; tissue uptake at 1 h ([4]; kidney): 85.4 ± 17.5 %ID/g; tissue uptake at 4 h ([4]; kidney): 92.9 ± 11.3 %ID/g; tissue uptake at 24 h ([4]; kidney): 68.9 ± 8.13 %ID/g; tissue uptake at 1 h ([4]; liver): 5.45 ± 0.49 %ID/g; tissue uptake at 4 h ([4]; liver): 4.8 ± 0.14 %ID/g; tissue uptake at 24 h ([4]; liver): 3.25 ± 0.21 %ID/g; tissue uptake at 1 h ([4]; lung): 1.5 ± 0.14 %ID/g; tissue uptake at 4 h ([4]; lung): 1.15 ± 0.07 %ID/g; tissue uptake at 24 h ([4]; lung): 0.77 ± 0.01 %ID/g; tissue uptake at 1 h ([4]; muscle): 0.45 ± 0.18 %ID/g; tissue uptake at 4 h ([4]; muscle): 0.31 ± 0.06 %ID/g; tissue uptake at 24 h ([4]; muscle): 0.38 ± 0.08 %ID/g

For N=C(N)NCCC[C@@H]1NC(=O)[C@H](CCCCN)NC(=O)[C@@H](Cc2ccc(O)cc2)NC(=O)[C@H](CC(=O)O)NC(=O)CNC1=O [cRGDyK], which “binding to αvβ6” value (purified αvβ6) is on record?
Its value is “no detectable binding”.

What does the source list for CC(C)C[C@H](NC(=O)[C@H](CCC(N)=O)NC(=O)[C@H](CCCNC(=N)N)NC(=O)[C@H](CC(C)C)NC(=O)[C@@H](NC(=O)[C@H](C)NC(=O)[C@H](CC(C)C)NC(=O)[C@H](CC(=O)O)NC(=O)CNC(=O)[C@@H](N)CCCNC(=N)N)[C@@H](C)O)C(=O)NCCOCCOCCOCCOCCOCCOCCOCCOCCOCCOCCOCCOCCC(=O)N[C@@H](CSC1CC(=O)N(CCC(=O)NCCCC[C@H](NC(=O)CCN2C(=O)CC(SC[C@H](NC(=O)CCOCCOCCOCCOCCOCCOCCOCCOCCOCCOCCOCCOCCNC(=O)[C@H](CC(C)C)NC(=O)[C@H](CCC(N)=O)NC(=O)[C@H](CCCNC(=N)N)NC(=O)[C@H](CC(C)C)NC(=O)[C@@H](NC(=O)[C@H](C)NC(=O)[C@H](CC(C)C)NC(=O)[C@H](CC(=O)O)NC(=O)CNC(=O)[C@@H](N)CCCNC(=N)N)[C@@H](C)O)C(N)=O)C2=O)C(=O)NCCC(=O)N[C@@H](CSC2CC(=O)N(CCNC(=O)CCC(C(=O)O)N3CCCN4CCN(CCCN(CC(=O)O)CC4)CC3)C2=O)C(N)=O)C1=O)C(N)=O (stereo partly drawn) [^64Cu-D10, metal not drawn]?
increase of kidney uptake as compared to 64Cu-M10 ([2]; 24 h p.i.): ~6 fold; Tumor uptake ([2]; 1 h p.i.): 1.53 ± 0.15 %ID/g; Tumor/Lung ([2]; 1 h p.i.): 0.8 ± 0.25; Tumor uptake ([2]; 4 h p.i.): 1.2 ± 0.26 %ID/g; Tumor/Lung ([2]; 4 h p.i.): 1.2 ± 0.31; Tumor uptake ([2]; 24 h p.i.): 0.89 ± 0.26 %ID/g; Tumor/Lung ([2]; 24 h p.i.): 1.4 ± 0.34; tumor uptake increase as compared to 64Cu-M10 [2]: ~3 fold; tissue uptake at 1 h ([3]; heart): 1.26 ± 0.37 %ID/g; tissue uptake at 4 h ([3]; heart): 0.79 ± 0.27 %ID/g; tissue uptake at 24 h ([3]; heart): 0.42 ± 0.1 %ID/g; tissue uptake at 1 h ([3]; kidney): 43.5 ± 1.8 %ID/g; tissue uptake at 4 h ([3]; kidney): 39.3 ± 5.66 %ID/g; tissue uptake at 24 h ([3]; kidney): 21.4 ± 0.57 %ID/g; tissue uptake at 1 h ([3]; liver): 2 ± 0.1 %ID/g; tissue uptake at 4 h ([3]; liver): 1.56 ± 0.11 %ID/g; tissue uptake at 24 h ([3]; liver): 1.01 ± 0.14 %ID/g; tissue uptake at 1 h ([3]; lung): 1.86 ± 0.2 %ID/g; tissue uptake at 4 h ([3]; lung): 0.99 ± 0.18 %ID/g; tissue uptake at 24 h ([3]; lung): 0.62 ± 0.23 %ID/g; tissue uptake at 1 h ([3]; muscle): 0.8 ± 0.11 %ID/g; tissue uptake at 4 h ([3]; muscle): 0.4 ± 0.03 %ID/g; tissue uptake at 24 h ([3]; muscle): 0.27 ± 0.13 %ID/g; Tumor uptake (H460 (αvβ6^-) xenografts; 1 h p.i.): 0.86 ± 0.21 %ID/g; Tumor uptake (H460 (αvβ6^-) xenografts; 4 h p.i.): 0.52 ± 0.05 %ID/g; Tumor uptake (H460 (αvβ6^-) xenografts; 24 h p.i.): 0.39 ± 0.04 %ID/g; tissue uptake at 1 h ([4]; heart): 1.41 ± 0.43 %ID/g; tissue uptake at 4 h ([4]; heart): 0.77 ± 0.09 %ID/g; tissue uptake at 24 h ([4]; heart): 0.47 ± 0.09 %ID/g; tissue uptake at 1 h ([4]; kidney): 43.3 ± 5.4 %ID/g; tissue uptake at 4 h ([4]; kidney): 50.1 ± 3.87 %ID/g; tissue uptake at 24 h ([4]; kidney): 19.8 ± 2.38 %ID/g; tissue uptake at 1 h ([4]; liver): 2.63 ± 0.92 %ID/g; tissue uptake at 4 h ([4]; liver): 2.3 ± 0.26 %ID/g; tissue uptake at 24 h ([4]; liver): 1.83 ± 0.15 %ID/g; tissue uptake at 1 h ([4]; lung): 1.33 ± 0.3 %ID/g; tissue uptake at 4 h ([4]; lung): 0.77 ± 0.07 %ID/g; tissue uptake at 24 h ([4]; lung): 0.45 ± 0.17 %ID/g; tissue uptake at 1 h ([4]; muscle): 0.75 ± 0.24 %ID/g; tissue uptake at 4 h ([4]; muscle): 0.31 ± 0.06 %ID/g; tissue uptake at 24 h ([4]; muscle): 0.33 ± 0.08 %ID/g
